Measurements from patent publication US20080112961A1 (MacroGenics, published 2008).

Tests used:
[1] = molecular target: T1, FcγRIIB-Fc fusion protein, soluble dimer: extracellular domain of FcγRIIB fused to the hinge-CH2-CH3 domain … (human, UniProt P31994 43-217, limits assumed); experiment: ELISA
T1 construct: extracellular domain; also called FcRIIB-Fc; 2bfcagl; not shown: human IgG2 hinge-CH2-CH3
T1 sequence (looked up): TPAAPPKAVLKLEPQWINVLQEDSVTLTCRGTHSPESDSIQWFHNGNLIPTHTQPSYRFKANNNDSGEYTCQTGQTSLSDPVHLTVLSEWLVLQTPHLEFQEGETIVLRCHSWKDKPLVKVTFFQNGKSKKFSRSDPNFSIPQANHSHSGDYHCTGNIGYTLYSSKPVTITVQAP

[2] = molecular target: T2, soluble monomeric FcγRIIIA, the extracellular region of FcγRIIIA joined to the linker-AVITAG sequence (UniProt P08637 17-208); experiment: BIAcore, Ab on BSA-FITC
T2 construct: extracellular domain; also called FcRIIIA

[3] = molecular target: T1, FcγRIIB-Fc fusion protein, soluble …; experiment: BIAcore, Ab on BSA-FITC
Experimental: (§1) Following this, the unreacted active esters were “capped off” with an injection of 1M Et-NH2. Once a suitable surface was prepared, ch 4-4-20 antibodies carrying the Fc mutations were passed over the surface by one minute injections of a 20 μg/mL solution at a […] flow rate. […] Next, dilution series of the receptor (FcγRIIIA and FcγRIIB-Fc fusion protein) in HBS-P buffer (10 mM HEPES, 150 mM NaCl, 0.005% Surfactant P20, 3 mM EDTA, pH 7.4) were injected onto the surface at 100 μL/min Antibody regeneration between different receptor dilutions was carried out by single 5 second injections of 100 mM NaHCO₃ pH 9.4; 3M NaCl.
(§2) Binding curves for two different concentrations (200 nM and 800 nM for FcγRIIIA and 200 nM and 400 nM for FcγRIIB fusion protein) were aligned and responses adjusted to the same level of captured antibodies, and the reference curves were subtracted from the experimental curves. Association and dissociation phases were fitted separately. Dissociation rate constant was obtained for interval 32-34 sec of the dissociation phase; association phase fit was obtained by a 1:1 Langmuir model and base fit was selected on the basis Rₘₐₓ and chi² criteria.

[4] = molecular target: T3, FcγRIIIA (form not stated) (UniProt P08637 17-208, limits assumed); experiment: ELISA
T3 construct: also called FcγRIIIA (ELISA)

[5] = molecular target: T4, FcγRIIB (form not stated) (UniProt P31994 43-217, limits assumed); experiment: ELISA
T4 construct: also called FcγRIIB (ELISA)
T4 sequence (looked up): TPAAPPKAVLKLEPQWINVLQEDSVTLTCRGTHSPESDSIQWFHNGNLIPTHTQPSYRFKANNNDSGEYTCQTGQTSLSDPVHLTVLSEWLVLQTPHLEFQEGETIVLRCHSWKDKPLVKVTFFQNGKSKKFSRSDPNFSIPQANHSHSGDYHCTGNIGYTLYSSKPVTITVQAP

[6] = molecular target: T3, FcγRIIIA (form not stated); experiment: ELISA; remark: listed apart in the source
[7] = molecular target: T4, FcγRIIB (form not stated); experiment: ELISA; remark: listed apart in the source
[8] = molecular target: T5, FcγRIIIA 158V, soluble monomer (extracellular region joined to linker-AVITAG) (UniProt P08637 17-208, limits assumed); experiment: BIAcore, ch4-4-20
T5 construct: extracellular domain; also called 3aV158; 3A 158V
Experimental: as §1, §2
(§3) Secondary Screen of Mutants via BIAcore: Mutants that were selected in the above screens were then analyzed by BIAcore to determine the kinetic parameters for binding FcγRIIIA (158V) and FcγRIIB. The method used was similar to that disclosed in Section 7.1, supra.

[9] = molecular target: T1, FcγRIIB-Fc fusion protein, soluble …; experiment: BIAcore, ch4-4-20
Experimental: as §1, §2, §3

T3 sequence (P08637 17-208 F176V limits assumed, form in doubt): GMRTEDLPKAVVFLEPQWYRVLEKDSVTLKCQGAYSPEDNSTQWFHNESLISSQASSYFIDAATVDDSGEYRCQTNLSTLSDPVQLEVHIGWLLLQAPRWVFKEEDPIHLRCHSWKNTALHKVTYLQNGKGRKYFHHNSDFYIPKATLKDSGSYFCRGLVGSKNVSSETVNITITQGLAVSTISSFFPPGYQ
T5 sequence (P08637 17-208 F176V limits assumed): as the sequence (P08637 17-208 F176V limits assumed, form in doubt) above

Binder	ELISA binding, fold vs Wt [4] [X]	fold increase vs WT [6] [x]	Koff WT/Mut [8] [ratio]	Koff WT/Mut [9] [ratio]	other results
ch4-4-20 Mut23 (antibody) chain 1: not shown chain 2: DVVMTQTPLSLPVSLGDQASISCRSSQSLVHSNGNTYLRWYLQKPGQSPKVLIYKVSNRFSGVPDRFSGSGSGTDFTLKISRVEAEDLGVYFCSQSTHVPWTFGGGTKLEIKRTVAAPSVFIFPPSDEQLKSGTASVVCLLNNFYPREAKVQWKVDNALQSGNSQESVTEQDSKDSTYSLSSTLTLSKADYEKHKVYACEVTHQGLSSPVTKSFNRGEC	–	–	–	–	ELISA, OD [1]: 0.1 OD; Kd [2]: 70.2 nM; koff [2]: 0.105 s⁻¹; kon [2]: 1.43e+06 M⁻¹ s⁻¹; Kd [3]: 108 nM; koff [3]: 0.107 s⁻¹
ch4-4-20 G316D, A378V, D399E (antibody) heavy: ASTKGPSVFPLAPSSKSTSGGTAALGCLVKDYFPEPVTVSWNSGALTSGVHTFPAVLQSSGLYSLSSVVTVPSSSLGTQTYICNVNHKPSNTKVDKKVEPKSCDKTHTCPPCPAPELLGGPSVFLFPPKPKDTLMISRTPEVTCVVVDVSHEDPEVKFNWYVDGVEVHNAKTKPREEQYNSTYRVVSVLTVLHQDWLNDKEYKCKVSNKALPAPIEKTISKAKGQPREPQVYTLPPSRDELTKNQVSLTCLVKGFYPSDIVVEWESNGQPENNYKTTPPVLESDGSFFLYSKLTVDKSRWQQGNVFSCSVMHEALHNHYTQKSLSLSPGK	1.5	1.5	–	–	ELISA binding, fold vs Wt [5]: 14 X; fold increase vs WT [7]: 14 x
ch4-4-20 MgFc39 (E293V, Q295E, A327T) (antibody) heavy: ASTKGPSVFPLAPSSKSTSGGTAALGCLVKDYFPEPVTVSWNSGALTSGVHTFPAVLQSSGLYSLSSVVTVPSSSLGTQTYICNVNHKPSNTKVDKKVEPKSCDKTHTCPPCPAPELLGGPSVFLFPPKPKDTLMISRTPEVTCVVVDVSHEDPEVKFNWYVDGVEVHNAKTKPRVEEYNSTYRVVSVLTVLHQDWLNGKEYKCKVSNKTLPAPIEKTISKAKGQPREPQVYTLPPSRDELTKNQVSLTCLVKGFYPSDIAVEWESNGQPENNYKTTPPVLDSDGSFFLYSKLTVDKSRWQQGNVFSCSVMHEALHNHYTQKSLSLSPGK	1.4	0.4	0.86	1.3	–
ch4-4-20 MgFc43 (Y319F, P352L, P396L) (antibody) heavy: ASTKGPSVFPLAPSSKSTSGGTAALGCLVKDYFPEPVTVSWNSGALTSGVHTFPAVLQSSGLYSLSSVVTVPSSSLGTQTYICNVNHKPSNTKVDKKVEPKSCDKTHTCPPCPAPELLGGPSVFLFPPKPKDTLMISRTPEVTCVVVDVSHEDPEVKFNWYVDGVEVHNAKTKPREEQYNSTYRVVSVLTVLHQDWLNGKEFKCKVSNKALPAPIEKTISKAKGQPREPQVYTLLPSRDELTKNQVSLTCLVKGFYPSDIAVEWESNGQPENNYKTTPLVLDSDGSFFLYSKLTVDKSRWQQGNVFSCSVMHEALHNHYTQKSLSLSPGK	–	–	1.23	2.29	–
